Laboratory results published in patent publication US8394770B2 (priority 2007, dated 2013).
Like-named read-outs stand apart in the source and are kept apart here. Positions of bridges follow the written chain, without caps; N, C: chain ends. No end group written: not given here.

Assays:
DP-BB/W rats = details: repeated daily administration, assayed at 110 days of age, vs vehicle; cited from earlier work
[1] = electrophysiological experiments; cited from earlier work
rat brain synaptosomes = details: binding to rat brain synaptosomes; cited from earlier work
mice = assay: In vivo toxicity / lethality test by injection into mice; details: injected, up to 10,000 microgram per 20 gram mouse weight (so in the source)
hKv1.2 [2] = biological target: T1, hKv1.2 (Homo sapiens, UniProt P16389); assay: Patch-clamp block of hKv1.2 channels expressed in Cos-7 cells
T1 sequence (P16389 whole entry): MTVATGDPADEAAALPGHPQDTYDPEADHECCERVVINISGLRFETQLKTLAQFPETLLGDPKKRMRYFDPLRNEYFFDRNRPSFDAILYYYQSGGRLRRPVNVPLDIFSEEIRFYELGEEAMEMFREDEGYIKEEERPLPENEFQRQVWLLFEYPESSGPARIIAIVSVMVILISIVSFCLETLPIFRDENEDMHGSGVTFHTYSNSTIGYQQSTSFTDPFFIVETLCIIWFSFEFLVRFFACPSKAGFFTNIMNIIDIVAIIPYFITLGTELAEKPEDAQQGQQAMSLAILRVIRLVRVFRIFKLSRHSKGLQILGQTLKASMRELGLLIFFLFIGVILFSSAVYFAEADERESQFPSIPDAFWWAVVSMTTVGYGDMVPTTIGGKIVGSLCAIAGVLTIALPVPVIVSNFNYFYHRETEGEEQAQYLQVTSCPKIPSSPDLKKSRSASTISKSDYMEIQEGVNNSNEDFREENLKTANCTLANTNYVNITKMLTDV

mKv1.1 = mKv1.1 (Mus musculus, UniProt P16388); assay: Patch-clamp block of mKv1.1 channels stably expressed in L929 cells; details: 10 nM
mKv1.1, sequence (P16388 whole entry): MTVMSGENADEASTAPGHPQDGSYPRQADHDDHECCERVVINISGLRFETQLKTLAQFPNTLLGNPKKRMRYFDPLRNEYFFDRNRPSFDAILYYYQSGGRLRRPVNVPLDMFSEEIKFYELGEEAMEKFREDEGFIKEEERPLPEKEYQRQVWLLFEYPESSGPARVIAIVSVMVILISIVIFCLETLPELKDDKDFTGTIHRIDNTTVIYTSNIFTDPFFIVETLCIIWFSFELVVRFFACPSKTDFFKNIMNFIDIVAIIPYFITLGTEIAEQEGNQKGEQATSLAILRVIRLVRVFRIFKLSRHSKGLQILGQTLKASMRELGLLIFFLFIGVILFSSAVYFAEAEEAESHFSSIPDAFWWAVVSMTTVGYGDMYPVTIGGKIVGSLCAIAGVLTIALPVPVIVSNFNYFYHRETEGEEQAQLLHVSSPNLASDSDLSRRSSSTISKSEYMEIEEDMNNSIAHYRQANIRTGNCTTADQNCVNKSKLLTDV

hIKCa1 = hIKCa1 (Homo sapiens, UniProt O15554); assay: Patch-clamp block of recombinant hIKCa1 channels expressed in Cos-7 cells (voltage ramps); details: 10 nM
hIKCa1, sequence (O15554 whole entry): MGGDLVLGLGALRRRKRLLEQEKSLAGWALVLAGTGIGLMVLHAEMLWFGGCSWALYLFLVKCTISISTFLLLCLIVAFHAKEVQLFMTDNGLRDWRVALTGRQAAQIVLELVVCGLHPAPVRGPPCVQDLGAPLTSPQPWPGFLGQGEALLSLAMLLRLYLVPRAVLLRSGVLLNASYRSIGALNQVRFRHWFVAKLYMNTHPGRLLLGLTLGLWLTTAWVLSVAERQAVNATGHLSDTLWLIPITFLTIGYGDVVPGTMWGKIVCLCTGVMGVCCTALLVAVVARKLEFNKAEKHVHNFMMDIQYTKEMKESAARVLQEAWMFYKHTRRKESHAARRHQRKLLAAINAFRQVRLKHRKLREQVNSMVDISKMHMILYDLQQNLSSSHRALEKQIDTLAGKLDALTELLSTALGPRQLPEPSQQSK
Procedure: The current carried by IKCa1 channels can be measured using a pipette filling solution having 1 μM free Ca^2+ concentration, which is sufficient to fully activate these channels [Grissmer et al., 1993].
Cos-7 cells were maintained in standard cell culturing conditions [Bagdany at al, 2005]. […] The normal extracellular solution is the same as described above. […] This solution contained 1 μM free Ca^2+ concentration to fully activate the hIKCa1 current. All other recording conditions (data acquisition, perfusion etc.) were identical to the description above for Kv1.3 channels.
Two hundred millisecond-long voltage ramps from −120 mV to +50 mV from a holding potential of −120 mV were used to elicit hIKCa1 currents in Cos-7 cells (ramp speed 0.85 mV/ms). Voltage ramps were run every 10 s. […] The reversal potential of the current is −75 mV, which is characteristic to a K^+ conductance based on the ionic composition of the recording solutions. For IKCa1 currents the slope (s) of the linear current-voltage relationship can be used to characterize the current block [Grissmer et al., 1993]. […] Error bars indicate SEM for n=3 independent experiments.

hKv1.3 channels [3] = biological target: T2, hKv1.3 channels (Homo sapiens, UniProt P22001); assay: Whole-cell patch-clamp block of hKv1.3 channels endogenously expressed in human peripheral blood T cells; assay type: cell-based; design: channels expressed endogenously in human peripheral blood T cells; endogenous in cells; host or cells: human peripheral blood T lymphocytes from healthy volunteers, PHA-stimulated
T2 sequence (P22001 whole entry): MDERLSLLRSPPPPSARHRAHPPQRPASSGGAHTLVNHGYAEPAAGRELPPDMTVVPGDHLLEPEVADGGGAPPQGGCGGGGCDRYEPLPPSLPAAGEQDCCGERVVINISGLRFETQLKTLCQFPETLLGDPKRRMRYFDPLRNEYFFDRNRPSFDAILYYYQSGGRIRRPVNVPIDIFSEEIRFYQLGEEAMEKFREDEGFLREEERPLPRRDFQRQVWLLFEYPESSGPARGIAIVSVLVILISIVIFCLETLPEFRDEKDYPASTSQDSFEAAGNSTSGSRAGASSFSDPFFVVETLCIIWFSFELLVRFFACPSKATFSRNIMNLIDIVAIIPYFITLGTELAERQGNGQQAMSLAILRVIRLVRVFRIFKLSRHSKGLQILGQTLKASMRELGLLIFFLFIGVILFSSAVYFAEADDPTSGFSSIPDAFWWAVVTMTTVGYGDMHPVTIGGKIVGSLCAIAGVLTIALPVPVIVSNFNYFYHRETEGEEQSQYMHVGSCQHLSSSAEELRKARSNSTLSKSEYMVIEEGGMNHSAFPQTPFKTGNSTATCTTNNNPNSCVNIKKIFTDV

hKv1.2 [4] = biological target: T1, hKv1.2
hKv1.3 channels [5] = biological target: T2, hKv1.3 channels
[6] = biological target: mKv1.1 channel (Mus musculus (Mouse)) (UniProt P16388)
mKv1.1 channel (Mus musculus (Mouse)), sequence (P16388 whole entry): as the sequence (P16388 whole entry) above

hKv1.3 channel [7] = biological target: T3, hKv1.3 channel (human, UniProt P22001)
[8] = biological target: hIKCa1 channel (EGFP-tagged) (human) (UniProt O15554); assay: ratio of Kd values from patch clamp, reference hKv1.3
hIKCa1 channel (EGFP-tagged) (human), sequence (O15554 whole entry): as the sequence (O15554 whole entry) above

mKv1.1 channel = mKv1.1 channel (Mus musculus (Mouse), UniProt P16388); assay: as above
hKv1.2 channel = hKv1.2 channel (human, UniProt P16389); assay: as above
hKv1.3 channel [9] = biological target: T3, hKv1.3 channel; assay: patch clamp on human lymphocytes (summary of the result)
hKv1.3 channel [10] = biological target: T3, hKv1.3 channel; assay: whole-cell patch clamp; recovery of hKv1.3 current on wash-out after 3 pM Vm24
hKv1.3 channels [11] = biological target: T2, hKv1.3 channels; remark: listed apart in the source

O=c1ccc2c(OCCCCOc3ccccc3)c3ccoc3cc2o1 [PAP-1]
reduction of the fraction of rats showing symptoms of EAD (DP-BB/W rats): ~50%

HsTx1: toxin of the scorpion Heterometrus spinnifer, SEQ ID NO: 6
potency of amidated form relative to free-carboxyl-terminal form [1]: 5 fold | activity of amidated form relative to free-carboxyl-terminal form (rat brain synaptosomes): up to 300 fold

Vm23: 35 amino acid peptide from V. mexicanus venom, SEQ ID NO:1, four disulfide bridges, 83% identical to Vm24 (AAAISCVGSKECLPKCKAQGCKSGKCMNKKCKCYC; not fully specified (bridges); also: four disulfide bridges (pairing not given here))
toxicity in experimental animals (mice): not toxic | current inhibition hKv1.2 (hKv1.2 [2]; 10 nM): ~9% | time for equilibrium block of hKv1.2 to develop (hKv1.2 [2]; 10 nM): 3.5 min | remaining current fraction (RCF) hKv1.2 (hKv1.2 [2]; 10 nM, n=3): 0.91±0.02 | reversibility of hKv1.2 block (hKv1.2 [2]; after 10 nM, wash-out): not readily reversible within 2 min | block of mKv1.1 (mKv1.1): practically does not block | current inhibition mKv1.1 (mKv1.1): ~3% | block of hIKCa1 (hIKCa1): practically does not block | current inhibition hIKCa1 (hIKCa1): ~1% | blockage of hKv1.3 current (hKv1.3 channels [3]; 10 nM): approximately 95% | time for equilibrium block of hKv1.3 to develop (hKv1.3 channels [3]; 10 nM): 3.5 min | block of hKv1.3 current (words) (hKv1.3 channels [3]; 10 nM, within 3.5 min): almost completely disappeared | relief of hKv1.3 block on wash-out (hKv1.3 channels [3]; after 10 nM, within 2 minutes): did not result in a significant relief

sVm24: chemically synthesized, correctly folded Vm24; primary sequence identical to the natural peptide (AAAISCVGSPECPPKCRAQGCKNGKCMNRKCKCYYC-NH2; not fully specified (bridges); also: disulfide pairing as native peptide (not given here))
block of hKv1.3 current (hKv1.3 channels [3]; 100 pM): > 90% | block of hKv1.3 current (words) (hKv1.3 channels [3]; 100 pM): almost completely disappeared | potency in blocking hKv1.3 compared with natural toxin (hKv1.3 channels [3]; RCF at 100 pM, t-test p=0.57): as potent as the natural toxin

B1: Vm24 (peptide)
peptide: AAAISCVGSPECPPKCRAQGCKNGKCMNRKCKCYYC-NH2
modifications: disulfide 12-31, 16-33, 21-36, 6-26; N-terminus assumed
SMILES: CC[C@H](C)[C@H](NC(=O)[C@H](C)NC(=O)[C@H](C)NC(=O)[C@H](C)N)C(=O)N[C@@H](CO)C(=O)N[C@H]1CSSC[C@@H]2NC(=O)[C@H](CCCCN)NC(=O)CNC(=O)[C@H](CC(N)=O)NC(=O)[C@H](CCCCN)NC(=O)[C@@H]3CSSC[C@@H](C(N)=O)NC(=O)[C@H](Cc4ccc(O)cc4)NC(=O)[C@H](Cc4ccc(O)cc4)NC(=O)[C@@H]4CSSC[C@H](NC(=O)[C@H](CCCCN)NC(=O)[C@@H]5CCCN5C(=O)[C@@H]5CCCN5C(=O)[C@H](CSSC[C@H](NC(=O)[C@H](CCCCN)NC(=O)[C@H](CCCNC(=N)N)NC(=O)[C@H](CC(N)=O)NC(=O)[C@H](CCSC)NC2=O)C(=O)N[C@@H](CCCCN)C(=O)N4)NC(=O)[C@H](CCC(=O)O)NC(=O)[C@@H]2CCCN2C(=O)[C@H](CO)NC(=O)CNC(=O)[C@H](C(C)C)NC1=O)C(=O)N[C@@H](CCCNC(=N)N)C(=O)N[C@@H](C)C(=O)N[C@@H](CCC(N)=O)C(=O)NCC(=O)N3
remaining current fraction (RCF) at 10 nM Vm24 (hKv1.2 [4]): 0.54 RCF | remaining current fraction (RCF) of whole-cell hKv1.3 current at 10 nM Vm24 (hKv1.3 channels [5]): 0.01 RCF | remaining current fraction (RCF) at 10 nM Vm24 [6]: 0.8 RCF | Kd (hKv1.3 channel [7]): 2.9 pM | selectivity for hKv1.3 over hIKCa1 [8]: > 4500 fold | selectivity for hKv1.3 over mKv1.1 (mKv1.1 channel): ≥ 10000 fold | selectivity for hKv1.3 over hKv1.2 (hKv1.2 channel): ≥ 1500 fold | Kd (hKv1.3 channel [9]): < 3 pM | koff (hKv1.3 channel [10]): ~0.00026 s⁻¹

B2: Vm23 (peptide)
peptide: AAAISCVGSKECLPKCKAQGCKSGKCMNKKCKCYC-OH
modifications: disulfide (positions not given here); also: four disulfide bridges, pairing not given here (assumed as in Vm24)
blockage of the current at 10 nM Vm23 (hKv1.3 channels [11]): 95%
